Test results from US20250197448A1 (UNIVERSITY OF ROCHESTER, published 2025).
Starred links: 1 amine or outer side, 2 acyl side, 3 side chain; linkers in the order of their positions; H or OH if unused. Positions of bridges follow the written chain, without caps; N, C: chain ends. Non-standard residues stand in square brackets, D forms with d. No end group written: not given here. O2beY = O-(2-bromoethyl)-tyrosine (p-2beF), reacts with Cys to form a thioether, O=C([C@H](Cc1ccc(OCCBr)cc1)N[*:1])[*:2]; pCaaF = p-(2-chloroacetamido)-phenylalanine, O=C(CCl)Nc1ccc(C[C@H](N[*:1])C(=O)[*:2])cc1

Legend:
[1] = target: T1, Sonic Hedgehog (Shh) (human, UniProt Q15465 24-197, limits assumed); experiment: plate binding assay with immobilised Shh
Experimental: After washing (3×150 μL of PBS with 0.05% Tween-20), each well was incubated with 100 μL of purified FLAG-tagged cyclopeptibody at varying concentrations for 1 hour at room temperature. After washing three times with wash buffer, each well was incubated with 100 μL of 1:2500 dilution of HRP-conjugate mouse anti-FLAG polyclonal antibody (Sigma-Aldrich) for 1 hour at room temperature. After washing three times with wash buffer, 100 μL of 2.2 mM o-phenylenediamine dihydrochloride, 4.2 mM urea hydrogen peroxide, 100 mM dibasic sodium phosphate, and 50 mM sodium citrate, pH 5.0, were added to each well, followed by measurement of the absorbance at 450 nm after 10-20 min using a Tecan Infinite 1000 plate reader. Equilibrium dissociation constants (Kp) were determined by fitting the dose-response curves to a 1:1 binding isotherm equation via nonlinear regression. using SigmaPlot. Mean values and standard deviations were calculated from experiments performed in triplicate.
To prepare a Hedgehog-targeting cyclopeptibody, a Shh-binding cyclic peptide previously developed via affinity maturation of a HHIP loop 2 mimic (Owens A E et al., 2017, J. Am. Chem. Soc., 139:12559-12568) was genetically fused to the Fc domain of human IgG1 via a spacer (Entry 5, Table 1). The resulting cyclopeptibody (called L2-m5-Tras-Fc) was expressed, purified, and characterized as described in Example 4. […]

[2] = target: T1, Sonic Hedgehog (Shh); experiment: plate binding assay: immobilised Shh, FLAG-tagged binder titrated, HRP anti-FLAG detection
[3] = target: T2, integrin αvβ3 on the surface of MDA-MB-231 breast cancer cells (human, UniProt P06756 31-1048; P05106 27-788); experiment: flow cytometry on MDA-MB-231 cells, FITC anti-IgG1 Fc secondary
T2 construct: whole, on cells; also called integrin receptors on the cells
T2 sequence (P06756 31-1048, chain 1 of 2): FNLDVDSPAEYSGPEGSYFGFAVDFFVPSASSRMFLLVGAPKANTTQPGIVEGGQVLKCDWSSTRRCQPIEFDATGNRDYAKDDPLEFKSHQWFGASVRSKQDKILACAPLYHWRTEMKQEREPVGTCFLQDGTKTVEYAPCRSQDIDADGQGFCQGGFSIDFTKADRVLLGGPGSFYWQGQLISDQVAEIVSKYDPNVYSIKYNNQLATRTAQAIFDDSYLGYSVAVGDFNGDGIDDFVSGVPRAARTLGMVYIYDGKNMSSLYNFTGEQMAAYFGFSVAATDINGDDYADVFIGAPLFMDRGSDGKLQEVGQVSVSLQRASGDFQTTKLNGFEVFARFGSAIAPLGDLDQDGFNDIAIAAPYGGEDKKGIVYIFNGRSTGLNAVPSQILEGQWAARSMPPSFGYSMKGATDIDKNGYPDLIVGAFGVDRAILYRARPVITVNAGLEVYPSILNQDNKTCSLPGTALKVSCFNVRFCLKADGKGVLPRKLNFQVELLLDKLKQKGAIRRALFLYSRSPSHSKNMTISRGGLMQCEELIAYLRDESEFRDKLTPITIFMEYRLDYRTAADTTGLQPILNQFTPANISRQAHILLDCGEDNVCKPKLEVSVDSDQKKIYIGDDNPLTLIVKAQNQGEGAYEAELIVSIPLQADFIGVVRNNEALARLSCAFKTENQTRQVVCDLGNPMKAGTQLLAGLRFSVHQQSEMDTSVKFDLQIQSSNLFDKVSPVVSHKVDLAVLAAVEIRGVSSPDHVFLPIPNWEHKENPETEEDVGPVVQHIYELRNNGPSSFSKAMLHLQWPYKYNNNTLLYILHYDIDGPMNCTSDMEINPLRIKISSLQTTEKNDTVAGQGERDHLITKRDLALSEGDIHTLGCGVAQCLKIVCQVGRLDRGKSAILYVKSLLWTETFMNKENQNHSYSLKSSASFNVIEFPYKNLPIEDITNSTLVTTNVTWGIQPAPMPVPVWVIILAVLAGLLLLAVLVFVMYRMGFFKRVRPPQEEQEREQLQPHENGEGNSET
T2 sequence (P05106 27-788, chain 2 of 2): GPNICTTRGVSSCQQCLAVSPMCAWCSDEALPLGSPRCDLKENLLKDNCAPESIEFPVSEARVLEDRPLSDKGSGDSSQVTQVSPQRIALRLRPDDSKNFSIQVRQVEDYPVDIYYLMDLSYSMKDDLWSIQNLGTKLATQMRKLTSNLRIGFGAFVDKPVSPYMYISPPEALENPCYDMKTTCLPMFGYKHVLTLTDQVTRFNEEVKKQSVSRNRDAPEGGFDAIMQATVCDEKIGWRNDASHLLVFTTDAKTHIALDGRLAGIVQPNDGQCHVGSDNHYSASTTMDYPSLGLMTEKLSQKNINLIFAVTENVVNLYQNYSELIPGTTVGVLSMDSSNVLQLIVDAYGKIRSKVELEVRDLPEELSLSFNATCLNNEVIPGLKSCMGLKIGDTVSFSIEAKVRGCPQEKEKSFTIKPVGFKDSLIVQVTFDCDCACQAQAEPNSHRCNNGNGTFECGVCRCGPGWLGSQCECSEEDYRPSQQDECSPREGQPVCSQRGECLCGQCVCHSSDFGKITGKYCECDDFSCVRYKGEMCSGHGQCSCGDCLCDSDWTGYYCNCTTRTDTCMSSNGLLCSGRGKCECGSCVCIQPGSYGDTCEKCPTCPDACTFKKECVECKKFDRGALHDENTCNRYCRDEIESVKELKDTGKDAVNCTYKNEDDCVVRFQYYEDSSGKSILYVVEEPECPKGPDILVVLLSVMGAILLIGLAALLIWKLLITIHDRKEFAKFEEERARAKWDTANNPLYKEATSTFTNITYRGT
Experimental: Flow Cytometry Analysis. […] When confluent, media was aspirated, cells were washed once with 1×DPBS (no calcium, no magnesium) (Gibco). Adherent cells were detached from the petri dish with 1 mL of accutase (Gibco) pre-warmed to 37° C., followed by incubated for 5 min at 37° C. Cells were spun down using centrifugation. Supernatant was removed and cells were washed three times with staining buffer (1×PBS with 0.5% BSA). Cells were resuspended in Eppendorf tubes in 100 μL PBS at a concentration of […]. Cyclopeptibodies or Human anti-PD-L1 antibody (1 μg) (R&D Systems, MAB10355) in staining buffer were then added to the tubes with a concentration of 1.5 μM in 200 μL. Eppendorf tubes were then placed on the platform shaker for gently shaking for 1 hour at room temperature. After 1 hour, cells were spun down using centrifugation, then supernatant was removed. After washing three times, cells were resuspended in 200 μL of Fluorescein (FITC) AffiniPure Goat Anti-Human IgG with working concentration of 30 μg/mL (Jackson ImmunoResearch, 109-095-098), incubated in the dark for 30 min at room temperature. […] Then cells were analyzed on a BD FACS Accuri C6⁺ using a filter of 533/30. […]
The cyclopeptibody treated cells were then analyzed by flow cytometry using a procedure similar to that described for the PD-L1-targeting cyclopeptibodies in Example 9.

Row | fold improved affinity against the same cyclic peptide fused to CBD [1] [fold] | Kd [2] [nM] | binding result [3] | Binder
1 | > 55 | 7 | – | DYKDDDDKGSGSTLSW[O2beY]EAMDMCTSSQQQQQQ-{Fc-H6} (Fc fusion, thioether 17-23; also: dimeric through the Fc, Cyclic peptide fused through a (Gln)6 spacer to human IgG1 Fc; dimeric through the Fc; made in E. coli; also called FLAG-(GS)2-TLSWZEAMDMCTSS-(Q)6-(Fc)^1-H6) [L2-m5-Tras-Fc]
2 | – | – | binds | DYKDDDDKGSGSCRDRGDY[pCaaF]QQQQQQIEGR-{Fc-H6} (Fc fusion, thioether 13-20; also: dimeric through the Fc, Integrin-targeting cyclopeptibody; dimeric through the human IgG1 Fc; also called cRGD5R (pCaaF)-Tras-Fc) [RGD5R (pCaaF)-Tras-Fc]
